Test [1] has as its target T1, dsc19CotD6xhis (C91f), donor strand complemented recombinant CS2 fimbrial tip adhesin CotD (Escherichia coli (ETEC) strain C91f).
T1 construct: also called dscCotD; CS2 adhesin
T1 chain: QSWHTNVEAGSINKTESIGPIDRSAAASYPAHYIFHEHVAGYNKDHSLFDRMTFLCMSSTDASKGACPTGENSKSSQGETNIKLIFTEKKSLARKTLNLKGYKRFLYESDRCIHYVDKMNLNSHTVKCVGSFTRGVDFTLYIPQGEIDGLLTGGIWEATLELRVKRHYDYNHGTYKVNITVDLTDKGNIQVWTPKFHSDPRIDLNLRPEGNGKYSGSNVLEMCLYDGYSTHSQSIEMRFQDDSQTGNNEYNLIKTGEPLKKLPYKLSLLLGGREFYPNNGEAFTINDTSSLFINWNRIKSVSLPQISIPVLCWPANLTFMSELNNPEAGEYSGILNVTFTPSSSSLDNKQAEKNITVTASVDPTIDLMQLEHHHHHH
Nature of the test: ELISA on coated adhesin.

Test [2] concerns the target T2, CsbD L85I, tip adhesin of CS17 fimbriae on wild type ETEC strain WS4240A (Escherichia coli (ETEC) strain WS4240A).
T2 chain: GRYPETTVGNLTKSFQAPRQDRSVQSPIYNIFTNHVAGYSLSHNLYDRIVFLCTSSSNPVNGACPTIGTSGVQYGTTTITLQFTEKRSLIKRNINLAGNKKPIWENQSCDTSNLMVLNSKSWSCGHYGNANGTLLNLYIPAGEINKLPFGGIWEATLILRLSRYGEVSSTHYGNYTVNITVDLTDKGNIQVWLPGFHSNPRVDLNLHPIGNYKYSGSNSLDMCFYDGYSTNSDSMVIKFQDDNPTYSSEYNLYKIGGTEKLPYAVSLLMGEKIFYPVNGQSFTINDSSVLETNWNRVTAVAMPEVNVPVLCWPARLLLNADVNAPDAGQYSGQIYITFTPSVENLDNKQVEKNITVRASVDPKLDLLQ
Nature of the test: cell-based or functional assay.

The target in test [3] is T3, CsbD, tip adhesin of CS17 fimbriae on wild type ETEC strain WS6788A (Escherichia coli (ETEC) strain WS6788A).
T3 chain: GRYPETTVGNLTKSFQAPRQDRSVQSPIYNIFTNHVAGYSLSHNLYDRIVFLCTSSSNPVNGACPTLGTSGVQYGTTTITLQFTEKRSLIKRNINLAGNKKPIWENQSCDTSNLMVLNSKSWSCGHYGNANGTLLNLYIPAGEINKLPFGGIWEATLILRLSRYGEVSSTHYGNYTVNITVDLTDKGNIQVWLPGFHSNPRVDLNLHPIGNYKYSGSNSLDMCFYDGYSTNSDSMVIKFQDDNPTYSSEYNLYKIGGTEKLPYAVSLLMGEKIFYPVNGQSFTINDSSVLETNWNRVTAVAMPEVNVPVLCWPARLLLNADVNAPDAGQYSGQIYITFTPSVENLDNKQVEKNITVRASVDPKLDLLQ
Nature of the test: cell-based or functional assay.

Test [4] addresses T4, CsbD L85I/H144A, tip adhesin of CS17 fimbriae on wild type ETEC strain LSN02-013966/A (Escherichia coli (ETEC) strain …).
T4 chain: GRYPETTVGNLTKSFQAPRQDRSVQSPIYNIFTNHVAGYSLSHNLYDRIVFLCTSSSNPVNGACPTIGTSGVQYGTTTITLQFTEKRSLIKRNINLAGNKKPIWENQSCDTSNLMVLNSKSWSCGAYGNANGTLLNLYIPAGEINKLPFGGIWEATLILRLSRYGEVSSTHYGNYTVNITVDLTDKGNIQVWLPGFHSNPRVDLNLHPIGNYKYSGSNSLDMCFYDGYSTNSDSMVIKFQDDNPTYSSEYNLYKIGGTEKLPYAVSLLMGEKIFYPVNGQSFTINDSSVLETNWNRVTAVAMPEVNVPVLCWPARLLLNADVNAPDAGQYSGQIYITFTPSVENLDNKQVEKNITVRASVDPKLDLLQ
Nature of the test: cell-based or functional assay.

The target in test [5] is CooD, tip adhesin of CS1 fimbriae on wild type ETEC strain WS1974A (Escherichia coli (ETEC) strain WS1974A). Nature of the test: cell-based or functional assay.
Test [6] concerns the target CsfD, tip adhesin of CS4 fimbriae on wild type ETEC strain BANG10-SP (Escherichia coli (ETEC) strain BANG10-SP). Nature of the test: cell-based or functional assay.
In test [7] the target is T5, CfaE, tip adhesin of CFA/I fimbriae on wild type ETEC strain H10407 (Escherichia coli (ETEC) strain H10407, UniProt P25734 23-360).
T5 sequence: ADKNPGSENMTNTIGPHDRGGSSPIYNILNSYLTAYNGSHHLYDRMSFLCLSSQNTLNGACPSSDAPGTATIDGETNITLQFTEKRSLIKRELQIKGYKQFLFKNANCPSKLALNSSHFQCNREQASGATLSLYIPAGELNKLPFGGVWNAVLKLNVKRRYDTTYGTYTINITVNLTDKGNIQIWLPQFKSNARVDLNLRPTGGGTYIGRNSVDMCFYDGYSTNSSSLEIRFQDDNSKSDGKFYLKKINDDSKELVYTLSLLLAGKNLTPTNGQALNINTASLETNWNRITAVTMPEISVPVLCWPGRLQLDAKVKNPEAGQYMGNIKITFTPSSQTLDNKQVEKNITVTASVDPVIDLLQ
Nature of the test: cell-based or functional assay.

The target in test [8] is T6, CotD, tip adhesin of CS2 fimbriae on wild type ETEC strain C91f (Escherichia coli (ETEC) strain C91f).
T6 chain: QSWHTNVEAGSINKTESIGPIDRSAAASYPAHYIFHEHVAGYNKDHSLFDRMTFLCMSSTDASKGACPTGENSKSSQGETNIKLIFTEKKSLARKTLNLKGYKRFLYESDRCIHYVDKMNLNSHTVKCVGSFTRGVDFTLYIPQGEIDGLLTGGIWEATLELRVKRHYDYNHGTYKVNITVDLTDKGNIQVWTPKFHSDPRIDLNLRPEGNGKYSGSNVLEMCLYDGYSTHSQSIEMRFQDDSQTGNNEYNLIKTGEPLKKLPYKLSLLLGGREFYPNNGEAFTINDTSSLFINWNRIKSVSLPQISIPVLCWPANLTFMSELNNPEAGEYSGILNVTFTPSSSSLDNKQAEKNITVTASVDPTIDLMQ
Nature of the test: cell-based or functional assay.

For test [9], the target named is CsuD, tip adhesin of CS14 fimbriae on wild type ETEC strain WS3294A (Escherichia coli (ETEC) strain WS3294A). Nature of the test: cell-based or functional assay.
For test [10], the target named is T7, dsc19CfaE6xhis (H10407), donor strand complemented recombinant CFA/I fimbrial tip adhesin CfaE (Escherichia coli (ETEC) strain H10407, UniProt P25734 23-360).
T7 construct: also called dscCfaE; primary CfaE
T7 sequence: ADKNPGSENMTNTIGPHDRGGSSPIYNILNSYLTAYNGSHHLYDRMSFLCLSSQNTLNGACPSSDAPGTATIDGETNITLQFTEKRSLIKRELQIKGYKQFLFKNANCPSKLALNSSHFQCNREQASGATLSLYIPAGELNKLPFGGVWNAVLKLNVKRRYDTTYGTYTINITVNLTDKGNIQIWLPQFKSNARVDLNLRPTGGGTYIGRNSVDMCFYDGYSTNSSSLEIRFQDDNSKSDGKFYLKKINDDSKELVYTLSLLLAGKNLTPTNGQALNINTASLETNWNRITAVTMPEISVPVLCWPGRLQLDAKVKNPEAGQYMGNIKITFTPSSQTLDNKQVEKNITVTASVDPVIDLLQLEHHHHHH
Nature of the test: ELISA on coated adhesin.

In test [11] the target is T8, dsc19CsbD6xhis (WS6788A), donor strand complemented recombinant CS17 fimbrial tip adhesin CsbD (Escherichia coli (ETEC) strain WS6788A).
T8 construct: also called dscCsbD; primary CsbD
T8 chain: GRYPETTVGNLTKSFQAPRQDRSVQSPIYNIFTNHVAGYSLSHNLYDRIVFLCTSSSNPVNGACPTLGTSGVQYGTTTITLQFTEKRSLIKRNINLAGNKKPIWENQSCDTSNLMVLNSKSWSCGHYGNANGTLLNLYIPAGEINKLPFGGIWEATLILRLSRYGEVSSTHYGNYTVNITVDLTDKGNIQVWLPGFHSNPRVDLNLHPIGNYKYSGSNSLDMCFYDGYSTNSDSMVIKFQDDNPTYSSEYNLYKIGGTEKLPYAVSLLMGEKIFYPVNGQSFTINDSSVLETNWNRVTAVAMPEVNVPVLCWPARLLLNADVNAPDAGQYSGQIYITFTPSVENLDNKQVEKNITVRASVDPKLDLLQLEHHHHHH
Nature of the test: ELISA on coated adhesin.

B1: anti-CfaE mouse mAb P5C7 (antibody, V domains shown)
VH: QIQLVQSGPELKKPGETVKISCKASGYTFTNYGMNWVKQAPGKGLKWMGWINTYTGEPTYTDDFKGRFAFSLETSASTAYLQINSLKTEDTATYFCARMEYGNYENAMDSWGQGTSVTVSS
VL: DTVMTQSHKFMSTSVGDRVSITCKASQDVSTAVVWYQQKPGQSPKLLIYSASYRYTGVPDRFTGSGSGTDFTFTISSVQAEDLAVYYCLQHFNIPRTFGGGTKLEIK
Turning to B1, the binding result in test [1] is “no binding (tested: mAb 2 ug/ml)”. Besides, the “MIC in HAI” value in [2] is over 250 µg/mL; in test [3], 16 µg/mL; in [4], over 250 µg/mL; in test [5], over 250 µg/mL; in [6], over 250 µg/mL; in [7] it was 1.2 µg/mL. Further, the “MIC in HAI” value in test [8] and in [9] was over 250 µg/mL each time.

B2: anti-CsbD mouse mAb P9A5 (antibody, V domains shown)
VH: EVQLQQFGAEVVKPGASVKISCKASGYTFTDYNIDWVKQSHGESLEWIGDISPNSEGTTYNQKFKGQATLTIDKSSTTAYMELRSLTSEDSAVYYCARGSGIWNGLDYWGQGTSVTVSS
VL: DIVMTQSHKFMSTSVGDRVSITCKASQDVSTAVAWYQQKPGQSPQLLIYSSSYRYVGVPDRFTGSGSGTDFTFTISSVQAEDLAVYYCHQHYSLPYTFGGGTKLEIK
notes: Isotype n.d
B2: the binding result in test [10] and in [1] was “no binding (tested: mAb 2 ug/ml)” in each case. Moreover, the “MIC in HAI” value in test [3] was 4 µg/mL; in [4] it was 3.9 µg/mL; in test [5], 4 µg/mL; in [6], over 250 µg/mL; in test [7] it was over 250 µg/mL; in test [8], over 250 µg/mL. Besides, the “MIC in HAI” value in [9] is over 250 µg/mL.

B3: anti-CotD mouse mAb P6B8 (antibody, V domains shown)
VH: QVTLKESGPGILQPSQTLSLTCSFSGFSLSTSGMGVGWIRQPSGKGLEWLSHIWWDDEKRYNPALKSRLTISKDTSSNQVFLKIASVDTADTATYYCARIGDRSGHAGFVYWGQGTLVTVSA
VL: DIKMTQSPSSMYASLGERVTITCKASQDINSYLSWFQQKPGKSPKTLIYRANRLVDGVPSRFSGSGSGQDYSLTISSLEYEDMGTYYCLQYDEFPYTFGGGTKLEIK
For the molecule B3, the binding result in test [11] and in [10] was “no binding (tested: mAb 2 ug/ml)” throughout. In addition, the “MIC in HAI” value in test [3] is over 250 µg/mL; in [4] it was over 250 µg/mL; in [5] it was over 250 µg/mL; in test [6], over 250 µg/mL; in test [7] it was over 250 µg/mL; in [8] it was 3 µg/mL. Also, in test [9], the “MIC in HAI” value is over 250 µg/mL.

B4: anti-CsbD mouse mAb P7C2 (antibody, V domains shown)
VH: EVKLEESGGGLVQPGGSMKLSCAASGFTFSDAWMDWVRQSPEKGLEWVGKIRSEINDHATYYAESVKGRFTISRDDSKSGVYLQMNNLRAEDTGIYYCARDGYYGAMDYWGQGTSVTVSS
VL: DVQITQSPSYLAASPGETITINCRSNKSISRYLAWYQEKPGKTNKLLIYSGSTLQSGIPSRFSGSGSNTDFTLTISSLEPEDFAMYYCQQHNEYPYTFGSGTKLEIK
Regarding B4, the binding result in [10] and in test [1] was “no binding (tested: mAb 2 ug/ml)” in each case. Moreover, the “MIC in HAI” value in test [2] is 2 µg/mL; in [3], 1 µg/mL; in test [4], 1 µg/mL; in test [5] it was 4 µg/mL; in test [6] it was over 250 µg/mL; in [7], over 250 µg/mL. For the same molecule, the “MIC in HAI” value in test [8] and in test [9] was over 250 µg/mL each time.

The record behind these values is patent US20230192824A1 (UNITED STATES OF AMERICA AS REPRESENTED BY THE SECRETARY OF …, published 2023).
